Laboratory results: patent US20260241049A1, “Radiopharmaceutical Compositions Targeting Glypican-3 and Uses Thereof” (RayzeBio, Inc., priority 2023, published 2026)
Starred links: 1 amine or outer side, 2 acyl side, 3 side chain; linkers in the order of their positions; H or OH if unused. Positions of bridges follow the written chain, without caps; N, C: chain ends. Non-standard residues stand in square brackets, D forms with d. Primed or numbered codes have the meaning given here. *: point of attachment. MeKCOpipzaa″ = (2S)-6-{[4-(carboxymethyl)piperazine-1-carbonyl]amino}-2-(methylamino)hexanoic acid, CN([C@@H](CCCCNC(=O)N1CCN(CC(=O)[*:3])CC1)C(=O)[*:2])[*:1]; DOTA‑Lu = DOTA-lutetium(175) amide on the side-chain amine, O=C([O-])CN1CCN(CC(=O)[O-])CCN(CC(=O)*)CCN(CC(=O)[O-])CC1.[175Lu+3]; MeHseMe″ = (2S)-4-methoxy-2-(methylamino)butanoic acid (N-methyl-O-methyl-L-homoserine), COCC[C@@H](C(=O)[*:2])N(C)[*:1]; F4aao = 4-(carboxymethoxy)-L-phenylalanine, O=C([C@H](Cc1ccc(OCC(=O)[*:3])cc1)N[*:1])[*:2]; F4aao(4) = 4-(carboxymethoxy)phenylalanine, O=C([C@H](Cc1ccc(OCC(=O)[*:3])cc1)N[*:1])[*:2]; MeHseMe(5) = N-methyl-O-methyl-homoserine, COCC[C@@H](C(=O)[*:2])N(C)[*:1]; MeHseMe = N-methyl-O-methyl-L-homoserine, COCC[C@@H](C(=O)[*:2])N(C)[*:1]; Thr(Me)(3) = TMe, O-methyl-L-threonine, CO[C@H](C)[C@H](N[*:1])C(=O)[*:2]; TMe = O-methyl-L-threonine, CO[C@H](C)[C@H](N[*:1])C(=O)[*:2]; TMe″ = O-methyl-threonine, CO[C@H](C)[C@H](N[*:1])C(=O)[*:2]; NMeAla(isoquinolin-7-yl) = CN[C@@H](Cc1ccc2ccncc2c1)C(=O)O; 3Pal(6-Ph) = N[C@@H](Cc1ccc(-c2ccccc2)nc1)C(=O)O; Phe(4-COOH) = N[C@@H](Cc1ccc(C(=O)O)cc1)C(=O)O; NMeI = CC[C@H](C)[C@H](NC)C(=O)O; NMeQ = CN[C@@H](CCC(N)=O)C(=O)O; NMeK = CN[C@@H](CCCCN)C(=O)O; NMeC = CN[C@@H](CS)C(=O)O

B1: Lu-C-62 (peptide)
peptide: Ac-[NMeK](DOTA‑Lu)[NMeI]D[NMeQ][Phe(4-COOH)][TMe″]IY[NMeAla(isoquinolin-7-yl)]G[3Pal(6-Ph)][NMeC]-NH2
modifications: bridge N-12; not fully specified (bridges); also: DOTA-Lu: cold Lu-175 complex
B2: Macrocyclic peptide of Example 2-60 (SEQ ID No. 62) (peptide)
peptide: {CH2CO}-[NMeK][NMeI]D[NMeQ][Phe(4-COOH)][TMe]IY[NMeAla(isoquinolin-7-yl)]G[3Pal(6-Ph)][NMeC]-NH2
modifications: thioether N-12
SMILES: CC[C@H](C)[C@@H]1NC(=O)[C@H]([C@@H](C)OC)NC(=O)[C@H](Cc2ccc(C(=O)O)cc2)NC(=O)[C@H](CCC(N)=O)N(C)C(=O)[C@H](CC(=O)O)NC(=O)[C@H]([C@@H](C)CC)N(C)C(=O)[C@H](CCCCN)N(C)C(=O)CSC[C@@H](C(N)=O)N(C)C(=O)[C@H](Cc2ccc(-c3ccccc3)nc2)NC(=O)CNC(=O)[C@H](Cc2ccc3ccncc3c2)N(C)C(=O)[C@H](Cc2ccc(O)cc2)NC1=O
B3: Macrocyclic peptide of Example 2-59 (SEQ ID No. 63) (peptide)
peptide: {CH2CO}-[NMeK][MeHseMe″]D[NMeQ][Phe(4-COOH)][TMe]I[F4aao][NMeAla(isoquinolin-7-yl)]G[3Pal(6-Ph)][NMeC]-NH2
modifications: thioether N-12
SMILES: CC[C@H](C)[C@@H]1NC(=O)[C@H]([C@@H](C)OC)NC(=O)[C@H](Cc2ccc(C(=O)O)cc2)NC(=O)[C@H](CCC(N)=O)N(C)C(=O)[C@H](CC(=O)O)NC(=O)[C@H](CCOC)N(C)C(=O)[C@H](CCCCN)N(C)C(=O)CSC[C@@H](C(N)=O)N(C)C(=O)[C@H](Cc2ccc(-c3ccccc3)nc2)NC(=O)CNC(=O)[C@H](Cc2ccc3ccncc3c2)N(C)C(=O)[C@H](Cc2ccc(OCC(=O)O)cc2)NC1=O
B4: Macrocyclic peptide of Example 10-2 (SEQ ID No. 41) (peptide)
peptide: {CH2CO}-[NMeK](dF)[NMeI]D[NMeQ][Phe(4-COOH)]II[F4aao(4)][NMeAla(isoquinolin-7-yl)]G[3Pal(6-Ph)][NMeC]-NH2
modifications: thioether N-12
SMILES: CC[C@H](C)[C@@H]1NC(=O)[C@H](Cc2ccc(C(=O)O)cc2)NC(=O)[C@H](CCC(N)=O)N(C)C(=O)[C@H](CC(=O)O)NC(=O)[C@H]([C@@H](C)CC)N(C)C(=O)[C@H](CCCCNC(=O)[C@H](N)Cc2ccccc2)N(C)C(=O)CSC[C@@H](C(N)=O)N(C)C(=O)[C@H](Cc2ccc(-c3ccccc3)nc2)NC(=O)CNC(=O)[C@H](Cc2ccc3ccncc3c2)N(C)C(=O)[C@H](Cc2ccc(OCC(=O)O)cc2)NC(=O)[C@H]([C@@H](C)CC)NC1=O
B5: Lu-C-72 (peptide)
peptide: Ac-[NMeK](DOTA‑Lu)[MeHseMe(5)]D[NMeQ][Phe(4-COOH)]IIY[NMeAla(isoquinolin-7-yl)]G[3Pal(6-Ph)][NMeC]-NH2
modifications: bridge N-12; not fully specified (bridges); also: cold Lu-175 chelated by DOTA
B6: Macrocyclic peptide of Example 2-24 (SEQ ID No. 58) (peptide)
peptide: {CH2CO}-[MeKCOpipzaa″][MeHseMe]D[NMeQ][Phe(4-COOH)][Thr(Me)(3)]IY[NMeAla(isoquinolin-7-yl)]G[3Pal(6-Ph)][NMeC]-NH2
modifications: thioether N-12
SMILES: CC[C@H](C)[C@@H]1NC(=O)[C@H]([C@@H](C)OC)NC(=O)[C@H](Cc2ccc(C(=O)O)cc2)NC(=O)[C@H](CCC(N)=O)N(C)C(=O)[C@H](CC(=O)O)NC(=O)[C@H](CCOC)N(C)C(=O)[C@H](CCCCNC(=O)N2CCN(CC(=O)O)CC2)N(C)C(=O)CSC[C@@H](C(N)=O)N(C)C(=O)[C@H](Cc2ccc(-c3ccccc3)nc2)NC(=O)CNC(=O)[C@H](Cc2ccc3ccncc3c2)N(C)C(=O)[C@H](Cc2ccc(O)cc2)NC1=O
B7: Macrocyclic peptide of Example 2-57 (SEQ ID No. 1) (peptide)
peptide: {CH2CO}-[NMeK][NMeI]D[NMeQ][Phe(4-COOH)]IIY[NMeAla(isoquinolin-7-yl)]G[3Pal(6-Ph)][NMeC]-NH2
modifications: thioether N-12
SMILES: CC[C@H](C)[C@@H]1NC(=O)[C@H](Cc2ccc(C(=O)O)cc2)NC(=O)[C@H](CCC(N)=O)N(C)C(=O)[C@H](CC(=O)O)NC(=O)[C@H]([C@@H](C)CC)N(C)C(=O)[C@H](CCCCN)N(C)C(=O)CSC[C@@H](C(N)=O)N(C)C(=O)[C@H](Cc2ccc(-c3ccccc3)nc2)NC(=O)CNC(=O)[C@H](Cc2ccc3ccncc3c2)N(C)C(=O)[C@H](Cc2ccc(O)cc2)NC(=O)[C@H]([C@@H](C)CC)NC1=O
B8: Macrocyclic peptide of Example 10-1 (SEQ ID No. 34) (peptide)
peptide: {CH2CO}-[NMeK](His)[NMeI]D[NMeQ][Phe(4-COOH)]II[F4aao(4)][NMeAla(isoquinolin-7-yl)]G[3Pal(6-Ph)][NMeC]-NH2
modifications: thioether N-12
SMILES: CC[C@H](C)[C@@H]1NC(=O)[C@H](Cc2ccc(C(=O)O)cc2)NC(=O)[C@H](CCC(N)=O)N(C)C(=O)[C@H](CC(=O)O)NC(=O)[C@H]([C@@H](C)CC)N(C)C(=O)[C@H](CCCCNC(=O)[C@@H](N)Cc2c[nH]cn2)N(C)C(=O)CSC[C@@H](C(N)=O)N(C)C(=O)[C@H](Cc2ccc(-c3ccccc3)nc2)NC(=O)CNC(=O)[C@H](Cc2ccc3ccncc3c2)N(C)C(=O)[C@H](Cc2ccc(OCC(=O)O)cc2)NC(=O)[C@H]([C@@H](C)CC)NC1=O
B9: Macrocyclic peptide of Example 2-4 (SEQ ID No. 7) (peptide)
peptide: {CH2CO}-[NMeK](Ac)[NMeI]D[NMeQ][Phe(4-COOH)]IIY[NMeAla(isoquinolin-7-yl)]G[3Pal(6-Ph)][NMeC]-NH2
modifications: thioether N-12
SMILES: CC[C@H](C)[C@@H]1NC(=O)[C@H](Cc2ccc(C(=O)O)cc2)NC(=O)[C@H](CCC(N)=O)N(C)C(=O)[C@H](CC(=O)O)NC(=O)[C@H]([C@@H](C)CC)N(C)C(=O)[C@H](CCCCNC(C)=O)N(C)C(=O)CSC[C@@H](C(N)=O)N(C)C(=O)[C@H](Cc2ccc(-c3ccccc3)nc2)NC(=O)CNC(=O)[C@H](Cc2ccc3ccncc3c2)N(C)C(=O)[C@H](Cc2ccc(O)cc2)NC(=O)[C@H]([C@@H](C)CC)NC1=O
B10: Lu-C-64 (peptide)
peptide: Ac-[NMeK](DOTA‑Lu)[NMeI]D[NMeQ][Phe(4-COOH)]II[F4aao(4)][NMeAla(isoquinolin-7-yl)]G[3Pal(6-Ph)][NMeC]-NH2
modifications: bridge N-12; not fully specified (bridges); also: DOTA-Lu: cold Lu-175 complex
B11: Macrocyclic peptide of Example 2-27 (SEQ ID No. 35) (peptide)
peptide: KQDQFTIFFGXC
modifications: MeK-MeQ-D-MeQ-F4COO-TMe-I-F4aao-MeNal27N-G-3Py6Ph-MeC-NH2; thioether ring from N-terminal acetyl to MeC12
B12: Macrocyclic peptide of Example B1 (SEQ ID No. 45) (peptide)
peptide: {CH2CO}-[NMeK][MeHseMe″]D[NMeQ][Phe(4-COOH)][TMe]IY[NMeAla(isoquinolin-7-yl)]G[3Pal(6-Ph)][NMeC]-NH2
modifications: thioether N-12
SMILES: CC[C@H](C)[C@@H]1NC(=O)[C@H]([C@@H](C)OC)NC(=O)[C@H](Cc2ccc(C(=O)O)cc2)NC(=O)[C@H](CCC(N)=O)N(C)C(=O)[C@H](CC(=O)O)NC(=O)[C@H](CCOC)N(C)C(=O)[C@H](CCCCN)N(C)C(=O)CSC[C@@H](C(N)=O)N(C)C(=O)[C@H](Cc2ccc(-c3ccccc3)nc2)NC(=O)CNC(=O)[C@H](Cc2ccc3ccncc3c2)N(C)C(=O)[C@H](Cc2ccc(O)cc2)NC1=O
notes: also called macrocyclic peptide 2b

Target: T1, Human Glypican3-Fc (ACRO Biosystems, GP3-H5258) (human, UniProt P51654 25-559)
T1 construct: Bought fusion protein, captured in Methods B-2, B-3 and B-4; Catalogue number is printed only in Method B-2; not shown: Fc part of the bought fusion
Test: SPR (Biacore T200), Method B-3: Glypican3-Fc captured on Protein A chip, peptide as analyte
Procedure: A Protein A sensor chip (Cytiva) was inserted into a Biacore T200 (Cytiva), priming was performed three times with a running buffer: HBS-P+, pH 7.4 (Cytiva), and equilibration was carried out at a flow rate of 30 μL/min. Glypican3-Fc was allowed to react for 60 seconds at a flow rate of 10 μL/min. After capturing human Glypican3-Fe, a peptide solution prepared to 10 mM in DMSO solution was diluted with a running buffer to a final concentration of 10 μM. […] Using the above samples, peptide kinetics for Glypican3 was obtained by SPR measurement. Kinetics evaluation of Glypican3 was performed by SPR measurements at a flow rate of 10 LL/min, setting the association time to 120 seconds and the disassociation time to 600 seconds.
The obtained data by Method B-1, Method B-2, Method B-3 and Method B-4 were analyzed by follow. Single Cycle Kinetics was used as the kinetics evaluation model, and curve fitting was performed using Biacore T200 Evaluation Software Version 3.0 (Cytiva).

| Binder | Kd [pM] |
| --- | --- |
| B1 | 150 |
| B2 | 230 |
| B3 | 1550 |
| B4 | 540 |
| B5 | 360 |
| B6 | 500 |
| B7 | 170 |
| B8 | 510 |
| B9 | 300 |
| B10 | 530 |
| B11 | 1100 |
| B12 | 200 |
